Measurements as given in IntAct's records for PubMed 17006543.

B1: Beta-adrenergic receptor kinase 1 (Homo sapiens), P25098 (parent)
chain: MADLEAVLADVSYLMAMEKSKATPAARASKKILLPEPSIRSVMQKYLEDRGEVTFEKIFSQKLGYLLFRDFCLNHLEEARPLVEFYEEIKKYEKLETEEERVARSREIFDSYIMKELLACSHPFSKSATEHVQGHLGKKQVPPDLFQPYIEEICQNLRGDVFQKFIESDKFTRFCQWKNVELNIHLTMNDFSVHRIIGRGGFGEVYGCRKADTGKMYAMKCLDKKRIKMKQGETLALNERIMLSLVSTGDCPFIVCMSYAFHTPDKLSFILDLMNGGDLHYHLSQHGVFSEADMRFYAAEIILGLEHMHNRFVVYRDLKPANILLDEHGHVRISDLGLACDFSKKKPHASVGTHGYMAPEVLQKGVAYDSSADWFSLGCMLFKLLRGHSPFRQHKTKDKHEIDRMTLTMAVELPDSFSPELRSLLEGLLQRDVNRRLGCLGRGAQEVKESPFFRSLDWQMVFLQKYPPPLIPPRGEVNAADAFDIGSFDEEDTKGIKLLDSDQELYRNFPLTISERWQQEVAETVFDTINAETDRLEARKKAKNKQLGHEEDYALGKDCIMHGYMSKMGNPFLTQWQRRYFYLFPNRLEWRGEGEAPQSLLTMEEIQSVEETQIKERKCLLLKIRGGKQFILQCDSDPELVQWKKELRDAYREAQQLVQRVPKMKNKPRSPVVELSKVPLVQRGSANGL

Variants of: B1
Conditions: with ubc_human UBC

Effect of a mutation on the interaction, decreasing interaction:
K19R
K31R
K30R
